From US20230312758A1, “BISPECIFIC ANTIBODY AGAINST CD3 AND CD20 IN COMBINATION THERAPY FOR TREATING FOLLICULAR LYMPHOMA” (GENMAB A/S, priority 2020, published 2023)

What was measured:
CD20 = molecular target: T1, CD20 (Homo sapiens, UniProt P11836); conditions: rituximab versus IgG1-CD20; bind to a different epitope; cited from earlier work
T1 sequence (P11836 1-297): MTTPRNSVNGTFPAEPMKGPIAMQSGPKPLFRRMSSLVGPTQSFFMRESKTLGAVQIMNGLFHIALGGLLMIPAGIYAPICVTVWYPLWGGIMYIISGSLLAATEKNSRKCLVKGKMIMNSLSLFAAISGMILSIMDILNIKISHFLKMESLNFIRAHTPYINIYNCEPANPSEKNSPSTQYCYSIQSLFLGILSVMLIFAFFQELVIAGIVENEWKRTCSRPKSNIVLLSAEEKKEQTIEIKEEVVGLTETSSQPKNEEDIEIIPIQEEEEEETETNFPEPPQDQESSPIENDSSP

[1] = tested on: CD20-expressing Daudi cells; test: DuoBody-CD3xCD20-induced T-cell-mediated cytotoxicity assay; assay type: cell-based; conditions: T cells pre-treated with lenalidomide and anti-CD3; E:T ratio 2:1
Experimental: T cells were incubated with (5 or 50 μM) or without lenalidomide in the absence or presence of immobilized anti-CD3 for 3 days. T cells were then used in a cytotoxicity assay with DuoBody-CD3xCD20 or DuoBody-CD3xctrl (containing a CD3 arm and a non-binding control arm) and CD20-expressing Daudi cells as target cells (E:T ratio 2:1). Data shown are average percentages cytotoxicity ±SD of duplicates, normalized to medium control (no antibody, no lenalidomide).
(§1) This experiment was performed to determine the impact of lenalidomide on Duobody-CD3xCD20-induced T-cell activation and T-cell-mediated cytotoxicity.
(§2) Briefly, T cells were activated with immobilized anti-CD3 in the presence (5 or 50 μM) or absence of lenalidomide for 3 days. […] T cells that were activated in the presence or absence of lenalidomide were subsequently tested for their cytotoxic capacity in response to epcoritamab.

R/R B-NHL = test: epcoritamab monotherapy clinical trial (NCT03625037); assay type: in vivo, human; conditions: R/R B-NHL patients, preliminary data
From the text: Epcoritamab as monotherapy is currently in a clinical trial for the treatment of R/R B-NHL (ClinicalTrials.gov Identifier: NCT03625037).

R/R follicular lymphoma = test: Phase 1b study of epcoritamab with rituximab and lenalidomide (R^2); assay type: in vivo, human; conditions: preliminary data
Experimental: The trial is conducted in 2 parts: dose escalation (Part 1) and expansion (Part 2). Subjects participate in only one part. Both parts consist of a screening period, a treatment period, a safety follow-up period, and a survival follow-up period.
The Part 1 dose escalation assesses the initial safety, tolerability, and clinical activity of epcoritamab in combination with R^2. Epcoritamab is initially be administered in combination with R^2 in a 3-subject cohort. DLTs are evaluated during the first 28 days. […]
In Part 2, epcoritamab is administered (with the dosing regimen determined in the dose escalation part) in combination with R^2. […]
Disease response is assessed according to both Lugano criteria (described in Cheson et al., J Clin Oncol 2014; 32:3059-68 (see, in particular, Table 3 in Cheson et al., 2014) and LYRIC (Table 8) to inform decisions on continuation of treatment. […]
Safety is assessed by measuring adverse events, laboratory test results, ECGs, vital sign measurements, physical examination findings, and ECOG performance status. Also assessed are immune effector cell-associated neurotoxicity syndrome (e.g., as described by Lee et al., Biol BloodMarrow Transplant 2019; 25:625-638), constitutional symptoms (B symptoms), tumor flare reaction, and survival. […]

[2] = tested on: CD20-expressing Raji-luc tumor cells; conditions: NOD-SCID mice injected with Raji-luc tumor cells and PBMCs; even in presence of excess IgG1-RTX-FEAR; cited from earlier work
[3] = tested on: primary DLBCL and follicular lymphoma patient biopsies; conditions: cited from earlier work
T cells = test: T-cell activation with immobilized anti-CD3 in presence or absence of lenalidomide; assay type: cell-based; conditions: 5 or 50 μM lenalidomide, CD3 crosslinking, 3 days; compared to no lenalidomide
Experimental: T cells were pre-incubated with assay medium or lenalidomide in the absence or presence of CD3 crosslinking by immobilized anti-CD3 for 3 days (as indicated on the x-axes), after which upregulation of CD69, CD25, PD-1 and LAMP-1 on CD4^+ and CD8^+ T cells was determined by flow cytometry. Data shown are geomean fluorescence intensities (FI) for four donors (each circle represents one condition for one donor). Pre-incubation conditions are shown on the x-axis.
as §1, §2

follicular lymphoma = conditions: double-refractory cases; cited from earlier work

IgG1-CD20: antibody of which the CD20 arm of epcoritamab is derived
competition for CD20 binding (CD20): compete for CD20 binding

epcoritamab: IgG1 bispecific CD3xCD20 antibody; heavy/light chain pairs SEQ ID NOs: 24/25 and 26/27; CAS 2134641-34-0
cytotoxicity (dose response) [1]: Higher maximum percent cytotoxicity and higher activity at lower epcoritamab concentrations | tolerated dose (R/R B-NHL; including 60 mg): at least 48 mg | dose-limiting toxicities (R/R B-NHL): no dose-limiting toxicities reported | incidence of CRS compared with single-agent epcoritamab (R/R follicular lymphoma): relatively lower incidence of CRS with the combination | tumor growth [2]: effectively reduce tumor growth | tumor cell kill ([3]; biopsy taken 2 weeks after administering the anti-CD20 antibody): up to 40% | T-cell-mediated cytotoxicity [3]: induced T-cell-mediated cytotoxicity

Nc1cccc2c1CN(C1CCC(=O)NC1=O)C2=O (centres unmarked) [lenalidomide, 3-(4-Amino-1-oxo-1,3-dihydro-2H-isoindol-2-yl) piperidine-2,6-dione]
T-cell activation (CD69, CD25 upregulation, release of granzyme B and IFNγ) (T cells): increased T-cell activation

CC[C@H](Nc1ncnc2[nH]cnc12)c1nc2cccc(F)c2c(=O)n1-c1ccccc1 [idelalisib]
1-year PFS (follicular lymphoma): 43% | toxicities (follicular lymphoma): several toxicities leading to treatment discontinuation
